± gives the uncertainty stated by the source.
Test: protein stability index of a GFP-peptide fusion (yeast GPS) (PSI 1-4); higher = more stable; sorted into four equal gates, so the index is relative within each strain
Conditions: ubr1∆
Procedure, shortened: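 Peptides tiling yeast proteins in 17-residue segments were fused downstream of GFP, with Cherry expressed from the same plasmid. As a pooled library in yeast, mid-log cultures grown in leucine-free medium were sorted into four equal gates by GFP/Cherry fluorescence ratio. Gate plasmids were PCR-amplified and Illumina-sequenced, and barcodes linked reads to strains. Each peptide received a protein stability index equal to the sum of each gate's read frequency times its gate number.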

Sequence | protein stability index
ILDNTENYDDTELRQLF [DSN1] | 3.29 ± 0.05
ILDPQVTRFTTWNGSPF [YJL039C/NUP192] | 2.56 ± 0.12
ILDTSQSESRQKRQLHD [SNU114] | 3.01 ± 0.048
ILERAYKKLDIDGKVIQ [SNF2] | 3 ± 0.058
ILHGSKSQEQREHSLQL [PRP28] | 2.35 ± 0.041
ILKSLKNRSNRKRFHSQ [YOR098C/NUP1] | 3.11 ± 0.042
ILNLLNILTTHLSHPGT [ECM29] | 1.76 ± 0.037
ILNLYSSAHLIRINDEP [YML103C/NUP188] | 1.77 ± 0.092
ILSGFHNAGPVAGAGAA [RPP1B] | 2.65 ± 0.099
ILSINAIDYEPEYEKAM [SMC1] | 3.13 ± 0.043
ILSKKWGFTNLDRPEYL [RPL10] | 2.89 ± 0.26
ILTKEVQGSTLAQLTSK [RPS1A] | 2.93 ± 0.15
ILVFQVSMKANKYQIKK [RPL25] | 3.03 ± 0.045
ILVKRYSIEMKPYSGKL [ECM29] | 2.43 ± 0.044
IMECCQKNDTAAFKDIA [RRP40] | 3.54 ± 0.077
IMNMIENVEKKEAALKT [SMC2] | 1.69 ± 0.05
INELTLLVQKRFKYAPG [RPS3] | 2.96 ± 0.13
INFERIDEVFSWYLNTF [GRR1] | 1.82 ± 0.051
INFKSREAIRPGHEMED [AAR2] | 3.38 ± 0.084
INIDDLLYELTAFKATV [YJL039C/NUP192] | 2.44 ± 0.043
INKEIFHHWLVEFINKM [SRB8] | 1.6 ± 0.088
INQYQLLYNLKNDILTN [SWI1] | 1.18 ± 0.036
INSGLYSVLLESPLSVA [YML103C/NUP188] | 1.14 ± 0.053
INYLALNAANYNIDANV [ECM29] | 2.72 ± 0.13
IPDLSIQNDIYLNDLMI [RPN12] | 3.02 ± 0.046
IPGGPKFEPLYPREEEE [PRP8] | 2.91 ± 0.13

Sequence | protein stability index
IPKPRTAGKTSVKSART [SNF2] | 3.09 ± 0.048
IPLNRLSLDSDVKFPSN [SMC3] | 1.99 ± 0.054
IPSLANNGNNSTSIQYH [POP6] | 2.59 ± 0.046
IPSSKYAYMMNSQSPRG [YLR018C/POM34] | 2.75 ± 0.045
IPVIALTDLDSPSEFVD [RPS0A] | 2.42 ± 0.06
IQELRKLLKSLLLNYLE [MED7] | 1.04 ± 0.1
IQHVGMINGRKLIKFET [FAS1] | 2.81 ± 0.041
IQKGKFTLLDFKKQMQT [SRP54] | 1.7 ± 0.29
IQSQVFESLYNSNDSVF [BRR2] | 2.09 ± 0.046
IRAGEFDVVLTTFEYII [SNF2] | 2.59 ± 0.12
IRAHQTELTHHLLPRNE [QCR7] | 2.92 ± 0.065
IRALQPKLKEGALHFVQ [YIL149C/MLP2] | 2.69 ± 0.071
IRENKVTYSRVSKKVDV [BRN1] | 3.04 ± 0.087
IRFRIEREVFVDVKPKS [RPC25] | 2.12 ± 0.25
IRITSLQGDLTFTKKCL [SIR4] | 2.79 ± 0.059
IRKFFGLSKEDDVRDFV [RPS6A] | 3.32 ± 0.098
IRKIVRKDENQFSYVDS [AAR2] | 3.12 ± 0.076
IRNARSIRAEAVAASST [POP1] | 2.19 ± 0.1
IRNEGSDAEEEEGEYKN [ISW2] | 3.44 ± 0.11
IRTRRAAELLDKRIVIS [DIS3] | 1.84 ± 0.1
IRVLFKENGQLIGAATK [SEC65] | 2.38 ± 0.079
IRYNSVEIQEVPRTADR [RPC82] | 2.79 ± 0.048
ISDVKIQVAAFIYGMSA [PRP8] | 1.94 ± 0.14
ISELPPQIRQEIEQLDQ [YGL172W/NUP49] | 3.06 ± 0.049
ISIKDNKLVMKSKFNKS [GAL11] | 2.08 ± 0.068
ISKQKSKLDYIFKDKEK [SMC1] | 3.29 ± 0.091

Sequence | protein stability index
ISKTVRFNVVKVSAAAG [RPS11A] | 1.64 ± 0.11
ISLEALNFYITNVPKAK [SIR3] | 2.87 ± 0.035
ISMLVTQLQRGGTSDMN [CSI1] | 2.53 ± 0.067
ISQKLTNVNVKIKDVQQ [SMC3] | 2.32 ± 0.19
ISQVSSIHAIGSIKEDY [RPB7] | 2.79 ± 0.1
ISSEKLLTLTNAANVPV [RPP1A] | 3 ± 0.082
ISSLGYRSHIFATNEER [SWI3] | 2.33 ± 0.045
ISSRTYGQRAVLKFAAH [RPS0B] | 1.64 ± 0.069
ISTGGFMSNDGPTLEKY [SNU114] | 2.12 ± 0.053
ISVSSRSDREYPLLIRM [SRP14] | 2.34 ± 0.072
ISVTDTEVERAKSLLKL [COR1] | 3.24 ± 0.084
ITDKTIKAFMDSTIGNS [IRR1] | 2.41 ± 0.14
ITFLIEKAKEMIRLLGS [ECM29] | 1.7 ± 0.12
ITIQLTRDVEPENLQVT [BRR2] | 2.85 ± 0.078
ITKEVTQVNILKENNAI [YIL149C/MLP2] | 3.17 ± 0.044
ITKLNKEIRAFDKLLNI [SRB4] | 3.15 ± 0.12
ITLIDSASLHLNYGVYL [RET1] | 2.4 ± 0.063
ITMPATNGKPDMAILER [ARP7] | 3.18 ± 0.042
ITPSAMKLVPSIPPATI [RPB5] | 2.5 ± 0.054
ITRFGLSKMRDSVLQLA [RPO31] | 3.44 ± 0.15
ITYALSGYVRSRGESDD [RPS21B] | 2.84 ± 0.058
IVACELILSGDTTANNG [YJL039C/NUP192] | 1.7 ± 0.032
IVALSSEEINQYVTQIE [PRE6] | 3.05 ± 0.042
IVEADEKKGIVQASVTS [RET1] | 1.7 ± 0.086
IVGQKNLNRAFNGDQVI [DIS3] | 2.98 ± 0.078
IVLSKAASALDEKEKQL [SIR4] | 3.57 ± 0.21

Sequence | protein stability index
IVMQLRKCCNHPYLFEG [ISW2] | 2.78 ± 0.11
IVRDLDRPGSKFHKREV [RPL3] | 3.14 ± 0.16
IVSEDHIILDTISECNL [MED1] | 2.83 ± 0.12
IVVATEHNPSAHTASVG [COR1] | 1.77 ± 0.037
IWPAEDALRRGMLAMAS [MED4] | 3.27 ± 0.086
IYAGYDDRYGYQLYTSN [PRE9] | 2.34 ± 0.16
IYDFHKMENLMRLIKRV [YJL039C/NUP192] | 2.57 ± 0.073
IYDKKDHKYVCTFSMEP [SRB8] | 3 ± 0.069
IYEEVRAVLKSFLESVI [HHF1] | 2.66 ± 0.097
IYFTVPNEFEIQLSTVN [RGR1] | 2.2 ± 0.042
IYNELSYELIKEECQIE [CSN9] | 3 ± 0.048
IYQTLIALNLDTTVNDC [SNF2] | 2.35 ± 0.033
IYRGVLNDENSDDYDNE [SMC1] | 3.42 ± 0.14
IYYDSYIHLAYSRSVDK [SSN2] | 3.26 ± 0.088
KAASSTRIFQALPRKLR [POP1] | 2.77 ± 0.086
KAEMPPEHLRKIINTHS [PRP8] | 1.89 ± 0.061
KAFKICEAAVEISKKDF [SIR3] | 2.85 ± 0.12
KAIELLEKALQGATNEG [SRP72] | 1.18 ± 0.22
KAKVEEMNNIIAASRRH [RPL36A] | 3.13 ± 0.072
KALDRHEFFIANHDDQD [SRP68] | 3.17 ± 0.07
KALKTNINFASGVKNDI [CDC53] | 3.04 ± 0.074
KATLELLKLIEPYVAYG [RPL7A] | 2.79 ± 0.047
KCPGCLNITTVFSHAQT [RPS27A] | 2.99 ± 0.043
KCPLLVEVDITLSPNVT [GRR1] | 2.51 ± 0.071
